In patent US20250066490A1 (PROFOUNDBIO US, published 2025):

Tests used:
[1] = biological target: T1, human CD70 expressed on the cell surface of tumor cell lines (human, UniProt P32970 1-193); test: flow cytometry on U251 cells, PE anti-human Fc, MFI; same fit as Table 6, which prints it in nM
T1 construct: whole, on cells
T1 sequence (looked up): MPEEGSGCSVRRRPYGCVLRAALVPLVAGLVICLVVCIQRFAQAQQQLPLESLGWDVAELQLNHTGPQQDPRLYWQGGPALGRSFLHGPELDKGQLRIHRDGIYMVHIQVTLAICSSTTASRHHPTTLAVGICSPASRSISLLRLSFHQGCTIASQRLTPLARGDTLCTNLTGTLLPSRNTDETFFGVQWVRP
Description: (§1) The lead antibodies were tested for binding to renal carcinoma cells and glioblastoma cells expressing CD70 on the cell surface by flow cytometry. […] U251 cells were cultured with MEM medium containing of 10% FBS and 1% NEAA+1 mM sodium pyruvate. DBTRG-05MG cells were cultured with DMEM medium (Gibco, Cat #C11995500BT) containing of 10% FBS. Each of the lead antibodies and the controls were incubated for 30 mins with the different cell lines (3×10⁵ cells per well) in 0.2 ml FACS buffer (1×PBS with 0.1% BSA) at 4° C. Then, the cells were pelleted, washed, and incubated at 4° C. for 30 mins with 100 μl of 1:200 diluted PE-conjugated anti human Fc (Abcam, Ab98596) in FACS buffer. The cells were pelleted again, washed with PBS, resuspended in FACS buffer and analyzed by flow cytometer (Beckman, CytoFLEX).
(§2) Antibodies 2H8 and 2D2 had slightly higher binding ability to the cell lines than that of antibody 69A7.

[2] = biological target: T2, human CD70 extra-cellular domain (ECD) linked to His tag (human, UniProt P32970 39-193); test: BLI, global 1:1 fit over 200-3.13 nM; cell repeated in each concentration row
T2 construct: extracellular domain; also called Hu CD70; HU CD70; not shown: His tag
T2 sequence (looked up): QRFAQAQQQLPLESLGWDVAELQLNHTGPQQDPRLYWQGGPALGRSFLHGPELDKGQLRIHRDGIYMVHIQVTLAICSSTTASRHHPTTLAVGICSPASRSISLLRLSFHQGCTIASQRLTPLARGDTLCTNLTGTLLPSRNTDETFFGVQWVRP

[3] = biological target: T3, cyno CD70 recombinant ECD protein (cyno); test: as above
T3 construct: extracellular domain; The sentence on the purchase names human, rat and mouse ECD-His only

[4] = biological target: T4, rat CD70 extra-cellular domain (ECD) linked to His tag (rat); test: BLI, global fit, cell repeated in each row; response below range of quantification, filing reports no cross-reactivity
T4 construct: extracellular domain
Description: (§3) Recombinant proteins consisting of human, rat, or mouse CD70 extra-cellular domain (ECD) linked to His tag was purchased (from ACRO systems). 69A7 and 2E7 (20 nM) were immobilized on anti-human IgG Fc biosensor tips (ForteBio). Binding assays using one concentration (100 nM) of recombinant protein in solution were performed using Octet RED (ForteBio). Association time was set at 180s and dissociation time was set at 300s. Binding affinity was calculated using ForteBio Data Acquisition 6.3 software. Affinity was derived by fitting the kinetic data to a 1:1 Langmuir binding model utilizing global fitting algorithms. […] 2E7 had no cross-reactivity to rat or mouse CD70 (Table 10).

[5] = biological target: T5, mouse CD70 extra-cellular domain (ECD) linked to His tag (mouse, UniProt O55237 45-195); test: as above
T5 construct: extracellular domain; also called MS CD70; not shown: His tag
T5 sequence (looked up): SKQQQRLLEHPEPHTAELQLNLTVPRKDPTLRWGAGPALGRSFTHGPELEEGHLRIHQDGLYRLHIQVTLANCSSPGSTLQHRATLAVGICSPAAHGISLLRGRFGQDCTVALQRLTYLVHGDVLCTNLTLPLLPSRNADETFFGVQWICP
Description: as §3

[6] = biological target: T6, cynomolgus CD70 recombinant protein (cynomolgus, UniProt A0A2K5WTU9 39-190); test: ELISA, IgG titrated on coated cynomolgus CD70 recombinant protein (2 µg/ml), anti-human Fc-HRP, OD450
T6 construct: also called cyno-antigen; cynomolgus CD70 protein
T6 sequence: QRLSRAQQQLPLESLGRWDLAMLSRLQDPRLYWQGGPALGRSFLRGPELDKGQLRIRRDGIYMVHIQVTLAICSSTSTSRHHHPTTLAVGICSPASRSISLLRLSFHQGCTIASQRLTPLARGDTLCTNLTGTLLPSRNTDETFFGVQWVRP
Description: The binding specificity of the CD70 antibodies was tested by ELISA according to a standard protocol. Briefly, 96-well micro-plates were coated with 2 μg/ml of human or cynomolgus CD70 recombinant protein in PBS at 100 μl per well and incubated overnight at 4° C. The plates were washed twice with TBS+0.5% Tween20. 200 μL of blocking buffer (2% BSA in PBS) was added to each well, and the plates were incubated at 37° C. for 2 hours. The plates were washed using the wash buffer mentioned above. Serially diluted antibodies were added to the ELISA plates using 100 μl per well, and the plates were incubated for 1 hour at room temperature. Then plates were washed 3 times. HRP conjugated anti-human Fc antibody solution (Sigma, I18885-2ML, diluted with blocking buffer) was added to the plates using 100 μl per well. The plates were incubated at room temperature for 1 hour and then washed 3 times. Then the TMB solution was added to plates using 100 μl per well and the plates were placed at RT for 5-15 mins. Then the stop solution (2M H2SO4) was added using 50 μl per well. The absorbance was measured at A450 and A630.

[7] = biological target: T2, human CD70 extra-cellular domain (ECD) …; test: BLI (Octet RED), antibody on anti-human Fc tips, CD70 ECD-His at 100 nM
Description: as §3

[8] = biological target: T1, human CD70 expressed on the cell …; test: flow cytometry on 786-O cells, PE anti-human Fc, MFI; same fit as Table 6, which prints it in nM
Description: as §1, §2

[9] = biological target: T1, human CD70 expressed on the cell …; test: flow cytometry on U251 cells
Description: as §1, §2

- EC50 [1]: 0.604 µg/mL
- Kd [2]: 0.807 nM
- koff [2]: 0.000254 s⁻¹
- kon [2]: 314000 M⁻¹ s⁻¹
- Kd [3]: 0.39 nM
- koff [3]: 0.000241 s⁻¹
- kon [3]: 618000 M⁻¹ s⁻¹
- Kd [4]: 1.75 nM
- koff [4]: 0.0104 s⁻¹
- kon [4]: 5.9e+06 M⁻¹ s⁻¹
- Kd [5]: 1030 nM
- koff [5]: 0.121 s⁻¹
- kon [5]: 117000 M⁻¹ s⁻¹
- EC50 [6]: 0.00401 µg/mL
- Kd [7]: 0.979 nM
- koff [7]: 0.000357 s⁻¹
- kon [7]: 365000 M⁻¹ s⁻¹
- EC50 [8]: 0.403 µg/mL
- EC50 [9]: 4.03 nM
B1: 2E7, full IgG (antibody, V domains shown)
VH: QVQLQESGPGLVKPSETLSLTCTVSGGSVSSDYYYWSWIRQPPGKGLEWLGYIYYSGSTNYNPSLKSRVTISVDTSKNQFSLKLRSVTTADTAVYYCARGDGDFLGVCFDYWGQGTLVTVSS
VL: EIVLTQSPATLSLSPGERATLSCRASQSVSSYLAWYQQKPGQAPRLLIFDASNRATGIPARFSGSGSGTDFTLTISSLEPEDFAVYYCQQRSNWPLTFGGGTKVEIK
